Test results reported in the nanobody polyreactivity screen of Harvey et al. (2022).

Test: yeast display, Sf9 membrane polyspecificity reagent, FACS + sequencing; frameworks hold sequencing errors
Outline: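 Nanobodies from a synthetic yeast display library (Saccharomyces cerevisiae BJ5465), induced 36–48 hours with galactose, were stained 1 hour at 4 °C with 10% biotinylated, detergent-solubilized Sf9 membrane reagent, enriched on streptavidin microbeads, then FACS-sorted. Anti-HA (expression) and streptavidin (reagent binding) fluorescence set low and high (top ~1%) gates. Polyreactivity labels come from the gate of origin. Genes were colony-PCR amplified, MiSeq 2 × 250 sequenced and filtered by CDR length.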

Sequence | polyreactivity (PSR sort gate)
QVQLVESGGGLVQAGGSLRLSCAASGRTFQRYAMGWYRQAPGKERELVAAITSGSRTNYADSVKGRFTSSRDNAKNTVYLQMNSLKPEDTAVYYCAADYTWRNNYCGQGTQVTVSS | high polyreactivity
QVQLVESGGGLVQAGGSLRLSCAASGRTFQTNDMGWYRQAPGKERELVAAISRRGGSTYYADSVKGRFTISRDNAKNTVYLQMNSLKPEDTAVYYCAATRLSRYEYWGQGTQVTVSS | low polyreactivity
QVQLVESGGGLVQAGGSLRLSCAASGRTFQTYAMGWYRQAPGTERELVAAISSDGSTYYADSVKGRFTISRDNATNTVYFQMHSLKPEDTAVYYRNTAIGDKYDYHVRVDYEYWGQGTQVTLSS | low polyreactivity
QVQLVESGGGLVQAGGSLRLSCAASGRTFQYNAMGWNRQAPGKERELVAAISWSDGITYYADSVKGRFTISRDNAKNTVFLQMNSLKPEDTAVYYCAAEGYGLSYYFPYDYWGQGTQVTVSS | high polyreactivity
QVQLVESGGGLVQAGGSLRLSCAASGRTFQYNAMGWNTQAPGKERELVAAISSGGSTYYADSVKGRFTISRDNAKNTVYLQMNSLKPEDTAVYYCNAVTGYQHVKYRYYYWGQGTQVTVSS | low polyreactivity
QVQLVESGGGLVQAGGSLRLSCAASGRTFQYYAMGWYRQAPGKERELVAAISGIGTSTSYADSVKGRFTISRDNAKNTVYLQMNSLKPEDTAVYYCAARLLVPCSPWYTNYYWGQGTQVTVSS | low polyreactivity
QVQLVESGGGLVQAGGSLRLSCAASGRTFQYYAMGWYRQAPGKERELVAAISGIGTSTSYADSVKGRFTISRDNAKNTVYLQMNSLKPEDTAVYYCAARLLVPGSPWYTNYYWGQGTQVTVSS | low polyreactivity
QVQLVESGGGLVQAGGSLRLSCAASGRTFQYYAMGWYRQAPGKERELVAAITWSGTSTYYADSVKGRFTISRDNAKNTVYLQMNSLKPEDTAVYYCNKYSPYITYDYDYWGQGTQVTVSS | high polyreactivity
QVQLVESGGGLVQAGGSLRLSCAASGRTFQYYAMGWYRQAPGKERELVATISYSGGSTSYADSVKGRFTISRDNAKNTVYLQMNSLKPEDTAVYYCAADYYYGDALSPSYPHWDFYYWGQGTQVTVSS | low polyreactivity
QVQLVESGGGLVQAGGSLRLSCAASGRTFRAYAMGWYRQAPGKERELVAAITGGGSTKYADSVKGRFTISRDNAKNTVYLQMNSLKPEETAVYYCAATGRSGVLSSYYYWGQGTQVTVSS | high polyreactivity
QVQLVESGGGLVQAGGSLRLSCAASGRTFRDNAMGWYRQAPGKERELVAAISSGDRTNYADSVKGRFTISRDNAKNTVYLQMNSLKPEETAVYYCAAVRYNSRVSTTPSEMYYWGQGTQVTVSS | low polyreactivity
QVQLVESGGGLVQAGGSLRLSCAASGRTFRDNAMGWYRQAPGKERELVAAISWSGGSTYYADSVKGRFTISRDNAKNTVYLQMNSLKPEDTAVYYCAASGYYRYTPFRYDHWGQGTQVTVSS | low polyreactivity
QVQLVESGGGLVQAGGSLRLSCAASGRTFRDYVMGWYRQAPGKERELVAAISTRGASTYYADSVKGRFTISRDYAKNTVYLQMNSLKPEDTAVYYCAARSTRRGNEYDYWGQGTQVTVSS | high polyreactivity
QVQLVESGGGLVQAGGSLRLSCAASGRTFRFNTMGWYRQAPGKERELVAAITSSGGSTYYADSVKGRFTISRDNAKNTVYLQMNSLKPEDTAVYYCAKRFYYRNRFDYWGQGTQVTVSS | low polyreactivity
QVQLVESGGGLVQAGGSLRLSCAASGRTFRFYAMGWYRQAPGKERELVAAITYGGGSTYYADSVKGRFTISRDNAKNTVYLQMNSLKPEDTAVYYCAARAGRVPSWSGRTRYYYGGQGTQVTVSS | high polyreactivity
QVQLVESGGGLVQAGGSLRLSCAASGRTFRFYVMGWYRQAPGKERELVAAISRGGGSTYYADSVKGRFTISRDNAKNTVYLQMNSLKPEDTAVYYCAAKPYKTRSSYWGDYYWGQGTQVTVSS | high polyreactivity
QVQLVESGGGLVQAGGSLRLSCAASGRTFRGNAIGWYRQAPGKERELVAAIRWNGGSTYYADSVKGRFTISRDNAKNTVYLQMNSLKPEDTAVYYCAVSYWYSRYDYWGQGTQVTVSS | high polyreactivity
QVQLVESGGGLVQAGGSLRLSCAASGRTFRGNAMGWYRQAPGKERELVAAISGSGGRTYYADSVKGRFTISRDNAKNTVYLKMNSLKPEDTAVFYCAAKRGKTYQRFDYWGQGTQVTVSS | high polyreactivity
QVQLVESGGGLVQAGGSLRLSCAASGRTFRGNAMGWYRQAPGKERELVAAISRGGSTKYADSVKGRFTISGDNAKNTVYLQMNSLKPEDTAVYYCAADNRKSRYDYWGQGTQVTVSS | high polyreactivity
QVQLVESGGGLVQAGGSLRLSCAASGRTFRGNAMGWYRQAPGKERELVAAISRRGVSTYYADSVKGRFTISRDNAKNTVYLQMNSLKPEDTAVYYCNADTSYQRVGGNYWGQGTQVTVSS | high polyreactivity
QVQLVESGGGLVQAGGSLRLSCAASGRTFRGNAMGWYRQAPGKERELVAAISWSGGRTYYADSVKGRFTISRDNAKNTVYLQMNSLKPEDTAVYYCAAGVPKNGQAGYDYWGQGTQVTVSS | high polyreactivity
QVQLVESGGGLVQAGGSLRLSCAASGRTFRGNAMGWYRQATGKERELVDVITASGSTTYADSVKGRFTISRDNAKNTVYLQLYSLKPEDTAVYYCAKYVPWYTLWLGGTDRDYWGQGTQVTVSS | low polyreactivity

Sequence | polyreactivity (PSR sort gate)
QVQLVESGGGLVQAGGSLRLSCAASGRTFRGNAMRWYRQAPGKERELVAAIRWNGGSTYYADSVKGRFTISRDNAKNTVYLQMNSLKPEDSAVYYCAVSYWYSRYDYWGQGTQVTVSS | high polyreactivity
QVQLVESGGGLVQAGGSLRLSCAASGRTFRGNVMGWYRQAPGKEREFVAAITKSDGSTYYADSVKGRFTISRDNAKNTVYLQMNSLKPEDTAVYYCAARTARTGWPWFRYDYWGQGTQVTVSS | low polyreactivity
QVQLVESGGGLVQAGGSLRLSCAASGRTFRGYAMGWYRQAPGKERELVAAITWRGGSTKYADSVKGRFTISRDNAKNTVYLKMNSLKPEDTAVYYCAAARHYLTFWGQGSQVTVSS | high polyreactivity
QVQLVESGGGLVQAGGSLRLSCAASGRTFRGYAMGWYRQAPGKETELVAAISSGGSTYYADSVKGRFTSSRDNAKYTVYLQMNSLKPEDTAVYYCARAVGNYRTLEFDYWGQGTQVTVSS | low polyreactivity
QVQLVESGGGLVQAGGSLRLSCAASGRTFRGYVMGWYRQAPGKERELVASISYSGGSTYYADSVKGRFTISRDNAKNTVYLQMNSLKPEDTAVYYCAARKGYDQYRWRYSQNNYWGQGTQVTVSS | high polyreactivity
QVQLVESGGGLVQAGGSLRLSCAASGRTFRLYAMGWYRQAPGKERELDAAIRTDDSTNYADSVKGRFTISRDNAKNTVYLQMNSLKPEDTAVYYCNAEGQFTWLGRRRHKFEYWGQGTQVTVSS | low polyreactivity
QVQLVESGGGLVQAGGSLRLSCAASGRTFRLYAMGWYRQAPGKERELVAAIRSGGSTNYADSVKGRFTISRDNEKNTVYLQMNSLKPEYTAVYYCAVDGYFFQGPYYYWGQGTQVTVSS | low polyreactivity
QVQLVESGGGLVQAGGSLRLSCAASGRTFRLYAMGWYRQAPGKERELVAAISYSDGRTYYADSVKGRFTISRDNAKNTVYLQMNSLKPEDTAVYYCAAETLYVSPYFYVVQYDYWGQGTQVTVSS | high polyreactivity
QVQLVESGGGLVQAGGSLRLSCAASGRTFRLYAMGWYRQAPGKERELVAAITFRGGRTYYADSVKGRFTISRDNAKNTVYLQMNSLKPEYTAVYYCNAVTYSSPYRFDYWGQGTQVTVSS | low polyreactivity
QVQLVESGGGLVQAGGSLRLSCAASGRTFRLYAMGWYRQAPGKERELVAVIRAGDSTNYADSVKGRFTISRDNAKNTVYLQLNSLKPDDTAVSYCAADVLYYYGKYDYWGQGTQVTVSS | high polyreactivity
QVQLVESGGGLVQAGGSLRLSCAASGRTFRNNTMGCYRQAPGKERELVATITGSGGSTYYADSVKGRFTISRDNSKNTVYLQMNSLKPEDTAVYYCAAVGDQNEYVYWGQGTQVTVSS | low polyreactivity
QVQLVESGGGLVQAGGSLRLSCAASGRTFRNYAMGWSRPAPWKERELVATITSSGASTYYADSVKGRFTISRDNAKNTVYLQMNSLKPEDTAVYYCAARPYTGRYFLCYYYWGQGTQVTVSS | high polyreactivity
QVQLVESGGGLVQAGGSLRLSCAASGRTFRPYAMGWSRQAPGKERELVAAIDSSGTSTYYADSVKGRFTISRDNAKNTVYLQMNSLKPEDTAVYYCAKAWPDHWYSRYDYWGQGTQVTVSS | low polyreactivity
QVQLVESGGGLVQAGGSLRLSCAASGRTFRPYAMGWYRPAPGKERELVAAISSRGSSTYYADSVKGRFTISRDNAKNTVYLQMNSLKPEDTAVYYCAARSYWGGLRYDYWGQGTQVTVSS | high polyreactivity
QVQLVESGGGLVQAGGSLRLSCAASGRTFRPYAMGWYRQAPGKERELVAAISQSVGSTYYADSVKGRFTISRDNAKNTVYLQMNSLKPEDTAVYYCAADRWSATHYVWYDYWGQGTQVTVSS | high polyreactivity
QVQLVESGGGLVQAGGSLRLSCAASGRTFRPYAMGWYRQAPGKERQFVAAISSSGGSTYYADSVKGRFSISRDNAKNTVYLLMNSLKPEDTAVYYCATGRKNAAQRWGYYYWGQGTQVTVSS | high polyreactivity
QVQLVESGGGLVQAGGSLRLSCAASGRTFRPYDMGWYRQAPGKERELVATITTNGGSTYYADSVKGRFTISRDNAKNTVYLQMNSLKPEDTAVYYCATDNWWQTYHYQGGYYWGQGTQVTVSS | low polyreactivity
QVQLVESGGGLVQAGGSLRLSCAASGRTFRQYAMGWYRQAPGKERELVATISSGGSTYYADSVKGRFTISRDNAKNTVYLHMNSLKPEDTAVYYCNAEGQWSRAPRDYWGQGTQVTVSS | low polyreactivity
QVQLVESGGGLVQAGGSLRLSCAASGRTFRRNAMGWYRQAPGKERELVAAISSRGGSTYYADSVKGRFTISRDNAKNSVYLQMNSLKPEDTAVYYCNKGTPPTGTLGDYEYWGQGTQVTVSS | high polyreactivity
QVQLVESGGGLVQAGGSLRLSCAASGRTFRRYAMGWYRQAPGKERELVAAISRSGGSTYYADSVKGRFTISRDNAKNTVYLQMNSLKPEETAVYYCAAGIWSKLVEPFDYWGQGTQVTVSS | high polyreactivity
QVQLVESGGGLVQAGGSLRLSCAASGRTFRRYAMGWYRQAPGKERELVAVITRGGNTNYADSVKGRFTISRDNAKNTVYLQMNSLKPEDTAVYYCAAELYNYGYDYWGQGTQVTVSS | low polyreactivity
